The values that follow come from the supplement of paper PMC11246515.

± gives the standard deviation of the averaged measurements.

The series can be described thus: total protein half-life in vivo (active degradation + dilution); higher = more stable protein.
[1] abbreviates: E. coli NCM3722 delta-clpP delta-lon delta-hslV, growth: N-lim chemostat, doubling time 6 h.
Setting [2] is: E. coli NCM3722 delta-clpP, growth: N-lim chemostat, doubling time 6 h.
The mark [3] stands for this setting: E. coli NCM3722 delta-hslV, growth: N-lim chemostat, doubling time 6 h.
Setting [4] is: E. coli NCM3722 delta-lon, growth: N-lim chemostat, doubling time 6 h.
Where [5] appears, read: E. coli NCM3722 delta-smpB, growth: N-lim chemostat, doubling time 6 h.
The mark [6] stands for this setting: wild type E. coli NCM3722, growth: C-lim chemostat, doubling time 3 h.
[7] abbreviates: wild type E. coli NCM3722, growth: C-lim chemostat, doubling time 6 h.
Setting [8] is: wild type E. coli NCM3722, growth: C-lim chemostat, doubling time 12 h.
[9] abbreviates: wild type E. coli NCM3722, growth: N-lim chemostat, doubling time 6 h.
The mark [10] stands for this setting: wild type E. coli NCM3722, growth: N-lim chemostat, doubling time 12 h.
Where [11] appears, read: wild type E. coli NCM3722, growth: P-lim chemostat, doubling time 6 h.
Setting [12] is: wild type E. coli NCM3722, growth: P-lim chemostat, doubling time 12 h.

“MPEQYRYTLPVKAGEQRLLGELTGAACATLVAEIAERHAGPVVLIAPDMQNALRLHDEISQFTDQMVMNLADWETLPYDSFSPHQDIISSRLSTLYQLPTMQRGVLIVPVNTLMQRVCPHSFLHGHALVMKKGQRLSRDALRTQLDSAGYRHVDQVMEHGEYATRGALLDLFPMGSELPYRLDFFDDEIDSLRVFDVDSQRTLEEVEAINLLPAHEFPTDKAAIELFRSQWRDTFEVKRDPEHIYQQVSKGTLPAGIEYWQPLFFSEPLPPLFSYFPANTLLVNTGDLETSAERFQADTLARFENRGVDPMRPLLPPQSLWLRVDELFSELKNWPRVQLKTEHLPTKAANANLGFQKLPDLAVQAQQKAPLDALRKFLETFDGPVVFSVESEGRREALGELLARIKIAPQRIMRLDEASDRGRYLMIGAAEHGFVDTVRNLALICESDLLGERVARRRQDSRRTINPDTLIRNLAELHIGQPVVHLEHGVGRYAGMTTLEAGGITGEYLMLTYANDAKLYVPVSSLHLISRYAGGAEENAPLHKLGGDAWSRARQKAAEKVRDVAAELLDIYAQRAAKEGFAFKHDREQYQLFCDSFPFETTPDQAQAINAVLSDMCQPLAMDRLVCGDVGFGKTEVAMRAAFLAVDNHKQVAVLVPTTLLAQQHYDNFRDRFANWPVRIEMISRFRSAKEQTQILAEVAEGKIDILIGTHKLLQSDVKFKDLGLLIVDEEHRFGVRHKERIKAMRANVDILTLTATPIPRTLNMAMSGMRDLSIIATPPARRLAVKTFVREYDSMVVREAILREILRGGQVYYLYNDVENIQKAAERLAELVPEARIAIGHGQMRERELERVMNDFHHQRFNVLVCTTIIETGIDIPTANTIIIERADHFGLAQLHQLRGRVGRSHHQAYAWLLTPHPKAMTTDAQKRLEAIASLEDLGAGFALATHDLEIRGAGELLGEEQSGSMETIGFSLYMELLENAVDALKAGREPSLEDLTSQQTEVELRMPSLLPDDFIPDVNTRLSFYKRIASAKTENELEEIKVELIDRFGLLPDPARTLLDIARLRQQAQKLGIRKLEGNEKGGVIEFAEKNHVNPAWLIGLLQKQPQHYRLDGPTRLKFIQDLSERKTRIEWVRQFMRELEENAIA”: the “total protein half-life in vivo” value by setting is: under setting [1], 5.59 ± 0.3 h; under setting [2], 5.07 ± 0.12 h; under setting [3], 5.1 ± 0.13 h; under setting [4], 5.12 ± 0.13 h; under setting [5], 5.021 ± 0.009 h; under setting [6], 3.07 ± 0.11 h. In addition, the “total protein half-life in vivo” value is, setting by setting: under setting [7], 6.0491 ± 0.00051 h; under setting [8], 11.4 ± 0.52 h; under setting [9], 4.9912 ± 0.001 h; under setting [10], 8.76 ± 0.27 h; under setting [11], 5.92 ± 0.57 h; under setting [12], 11.3 ± 0.21 h.
For the sequence “MTVRVAINGFGRIGRNVVRALYESGRRAEITVVAINELADAAGMAHLLKYDTSHGRFAWEVRQERDQLFVGDDAIRVLHERSLQSLPWRELGVDVVLDCTGVYGSREHGEAHIAAGAKKVLFSHPGSNDLDATVVYGVNQDQLRAEHRIVSNASCTTNCIIPVIKLLDDAYGIESGTVTTIHSAMHDQQVIDAYHPDLRRTRAASQSIIPVDTKLAAGITRFFPQFNDRFEAIAVRVPTINVTAIDLSVTVKKPVKANEVNLLLQKAAQGAFHGIVDYTELPLVSVDFNHDPHSAIVDGTQTRVSGAHLIKTLVWCDNEWGFANRMLDTTLAMATVAFR [P0A9B6]”, the “total protein half-life in vivo” value under setting [1] came to 4.55 ± 0.44 h; the “total protein half-life in vivo” value under setting [2] was found to be 5.54 ± 2.7 h; the “total protein half-life in vivo” value under setting [3] turned out to be 4.07 ± 1.2 h; the “total protein half-life in vivo” value under setting [4] stood at 4.77 ± 1.6 h; the “total protein half-life in vivo” value under setting [5] came to 3.65 ± 0.18 h; the “total protein half-life in vivo” value under setting [6] came to 2.85 ± 0.086 h. Besides, the “total protein half-life in vivo” value by setting is: under setting [7], 5.08 ± 0.25 h; under setting [8], 8.49 ± 0.63 h; under setting [9], 3.49 ± 0.19 h; under setting [10], 5.94 ± 0.99 h; under setting [11], 5.48 ± 0.15 h; under setting [12], 10 ± 0.75 h.
For the sequence “MINVQNVSKTFILHQQNGVRLPVLNRASLTVNAGECVVLHGHSGSGKSTLLRSLYANYLPDEGQIQIKHGDEWVDLVTAPARKVVEIRKTTVGWVSQFLRVIPRISALEVVMQPLLDTGVPREACAAKAARLLTRLNVPERLWHLAPSTFSGGEQQRVNIARGFIVDYPILLLDEPTASLDAKNSAAVVELIREAKTRGAAIVGIFHDEAVRNDVADRLHPMGASS”, the “total protein half-life in vivo” value under setting [11] was 0.0732 h and the “total protein half-life in vivo” value under setting [12] came out at 0.788 ± 0.69 h.
As to “MDALELLINRRSASRLAEPAPTGEQLQNILRAGMRAPDHKSMQPWHFFVIEGEGRERFSAVLEQGAIAAGSDDKAIDKARNAPFRAPLIITVVAKCEENHKVPRWEQEMSAGCAVMAMQMAAVAQGFGGIWRSGALTESPVVREAFGCREQDKIVGFLYLGTPQLKASTSINVPDPTPFVTYF [P0ACY1]”, the “total protein half-life in vivo” value under setting [1] amounted to 5.15 ± 0.18 h; the “total protein half-life in vivo” value under setting [2] amounted to 5.29 ± 0.85 h; the “total protein half-life in vivo” value under setting [3] was 4.55 ± 0.042 h; the “total protein half-life in vivo” value under setting [4] is 4.85 ± 0.25 h; the “total protein half-life in vivo” value under setting [5] is 4.85 ± 0.27 h; the “total protein half-life in vivo” value under setting [6] came out at 2.91 ± 0.03 h. The “total protein half-life in vivo” value runs as follows: under setting [7], 5.49 ± 0.1 h; under setting [8], 9.81 ± 4.2 h; under setting [9], 4.7 ± 0.14 h; under setting [10], 7.1 ± 0.14 h; under setting [11], 5.6 ± 0.17 h; under setting [12], 11.6 ± 1.3 h.
For the sequence “MINALGLLEVDGMVAAIDAADAMLKAANVRLLSHEVLDPGRLTLVVEGDLAACRAALDAGCAAAMRTGRVISRKEIGRPDDDTQWLVTGFNRQPKQPVREPDAPVIVAESADELLALLTSVRQGMTAGEVAAHFGWPLEKARNALEQLFSAGTLRKRSSRYRLKPH”, the “total protein half-life in vivo” value under setting [6] is 1.02 ± 0.097 h.
